Laboratory results reported in PMC314469, “Protein Interaction Networks by Proteome Peptide Scanning” (PLoS Biology, 2004).

T1: Abp1 SH3 (ABP1_YEAST), P15891
T1 chain: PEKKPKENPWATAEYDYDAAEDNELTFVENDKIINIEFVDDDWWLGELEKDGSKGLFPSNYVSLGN


Target: T1, Abp1 SH3 (ABP1_YEAST), P15891
Assay: SPOT array

| Binder | normalised SPOT signal, Boehringer light units (BLU); mean over the file's lines of this peptide |
| --- | --- |
| QPPTGILPLAPLRP [YPL085W 911-924] | 63.4 |
| QSTKKAPPPVVKP [YBR108W 772-784] | 4860 |
| QLATSLYPDIYKP [YFL007W 1286-1298] | 86.3 |
| QFIKAGVPIGRKP [YGR112W 321-333] | 7910 |
| QQEQNTPPLPPKP [YCL008C 172-184] | 16.1 |
| QVSGTRQSPIPKKP [YML007W 308-321] | 172 |
| QVEPTLDEELPKRP [YDR422C 627-640] | 58.1 |
| RDESSILPKNYRP [YDR365C 307-319] | 97.6 |
| QILLPTNPTLDKP [YNR010W 13-25] | 135 |
| QEENKLEESVPTKP [YIL072W 279-292] | 88 |
| QHNTSSSRRGPGRP [YDR310C 197-210] | 579 |
| QNSERAAQEFPNKP [YGR116W 858-871] | 75.2 |
| QIREDQQEVPPQRP [YMR160W 21-34] | 74.4 |
| QRKSLRRPTLSKP [YOR264W 128-140] | 43 |
| QEYGGQKPELSKP [YHL032C 439-451] | 58.1 |
| QTPKVEKTEKPKKP [YLR287C-A 17-30] | 33.2 |
| QLQKKNDRPSPLKP [YKL101W 857-870] | 347 |
| QNDLPTGYYEPMKP [YLL016W 403-416] | 15.1 |
| QIGSVATSGIPARP [YLR138W 520-533] | 66.6 |
| QSTPQTMRQAPKRP [YNL298W 490-503] | 7180 |
| RATPVSTPVISKP [YHL007C 201-213] | 61.6 |
| RAVSDFVPGFAKP [YDR122W 674-686] | 198 |
| QTATTLSPAKARP [YOR178C 4-16] | 122 |
| QSSTTTAAATPTKP [YHL004W 115-128] | 160 |
| QMVYIVDPSKRRP [YHR196W 194-206] | 445 |
| QMFLSIQPQEARP [YPL125W 1020-1032] | 310 |
| QVHRHEPPVTSRP [YDL036C 175-187] | 133 |
| QEQQNKAPEKPKP [YGL105W 194-206] | 46.6 |

Further lines, results first:

| normalised SPOT signal, Boehringer light units (BLU); mean over the file's lines of this peptide | Binder |
| --- | --- |
| 4.4 | RAAKLAAPENEKP [YOL040C 61-73] |
| 253 | QKNVIHRAARPTRP [YLR029C 32-45] |
| 55 | QIIETPYPPTQKP [YJL208C 31-43] |
| 49.8 | RAIYTITPETSRP [YIL080W 1034-1046] |
| 627 | QRFNNSNNSIPRKP [YPL032C 537-550] |
| 62.9 | QWGVIIINKMPLKP [YDR434W 319-332] |
| 160 | QLPNPAMPLLHRP [YER169W 386-398] |
| 19.8 | QPTERDEYKQPFKP [YPR175W 148-161] |
| 147 | QKNYVYGRQDPKKP [YNL137C 407-420] |
| 42100 | QRALAKDLIVPRRP [YGL099W 127-140] |
| 316 | QMQIPKYENKPFKP [YBR073W 34-47] |
| 83.3 | QPVIVNTPHLKKP [YHR064C 433-445] |
| 22 | QNLPRHDADFPPRP [YHR030C 429-442] |
| 89.6 | QVADVQWSPHPAKP [YDR128W 69-82] |
| 1750 | QISWNGIPKIHRP [YOR070C 275-287] |
| 897 | QLTTEVWRKVPMKP [YCR032W 1846-1859] |
| 116 | QVILTRVPHDIRP [YDR414C 52-64] |
| 113 | QQVPMPILQQPNRP [YNL278W 947-960] |
| 140 | QFMSAGLPQVAKP [YLR304C 105-117] |
| 696 | RAQNSYQPMYQRP [YPL042C 7-19] |
| 57.3 | QLDMDMYPYKLKP [YLR375W 257-269] |
| 3390 | QSMISTRSTPPARP [YHR073W 189-202] |
| 40.6 | QYDEIHIPAPSKP [YER172C 459-471] |
| 196 | QFRDDSLPPKSKP [YIL091C 357-369] |
| 333 | QRGQQGYPRQPQRP [YDR171W 23-36] |
| 92.9 | QSQLTSIAAVPPKP [YDL030W 480-493] |
| 114 | RAVYTITPETSRP [YGR109W-B 1008-1020] |
| 212 | QLRNELIKQGPKRP [YMR072W 33-46] |
| 215 | QVNSLTLPIWVRP [YNL169C 143-155] |
| 1000 | QGLKLTVPKKIKP [YHR031C 197-209] |
